Kd data for 4 molecules are collected here from publication PMC8809517, “Cofactor-independent RNA editing by a synthetic S-type PPR protein”.

Changes are numbered by the printed parent chain.

Test in all cases: high-throughput RNA pulldown from lysate on Ni-NTA beads; HRP: 50 mM Tris pH 8, 150 mM NaCl, 1 mM beta-mercaptoethanol, 50 ug/ml BSA, 3 ug/ml yeast RNA, 0.5% heparin; ITC and FP: Tris pH 8, 200 mM KCl, 5% glycerol; MST: 50 mM Tris pH 8, 200 mM NaCl, 1 mM DTT, BSA, heparin, 0.05% Tween 20
Holding throughout (details): tags: N-terminal His-eGFP

For data set [1], the target named is T1, GFP-9S library array, motif 4 ND N98C;D124N (synthetic construct, N98C;D124N).
T1 chain: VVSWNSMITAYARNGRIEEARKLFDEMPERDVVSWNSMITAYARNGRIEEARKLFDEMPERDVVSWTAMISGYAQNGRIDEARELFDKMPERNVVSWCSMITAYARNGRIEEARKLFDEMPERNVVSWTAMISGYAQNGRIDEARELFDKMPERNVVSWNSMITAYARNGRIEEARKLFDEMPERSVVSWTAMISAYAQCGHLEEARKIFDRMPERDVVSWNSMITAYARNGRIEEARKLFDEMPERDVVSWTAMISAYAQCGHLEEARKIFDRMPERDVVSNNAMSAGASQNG

Data set [2] concerns the target T2, GFP-9S library array, motif 4 ND N98F;D124G (synthetic construct, N98F;D124G).
T2 chain: T1 chain with C98F, N124G

Data set [3] concerns the target T3, GFP-9S library array, motif 4 ND D124T (synthetic construct, D124T).
T3 chain: T1 chain with C98N, N124T

Data set [4] concerns the target T4, GFP-9S library array, motif 4 ND N98G;D124N (synthetic construct, N98G;D124N).
T4 chain: T1 chain with C98G

Data set [5] deals with T5, GFP-9S library array, motif 4 ND N98S (synthetic construct, N98S).
T5 chain: T1 chain with C98S, N124D

By Kd is commonly meant the constant that tells how readily two partners part at equilibrium. Read a high Kd as weaker binding. Consider AUUAUACGUGA (ssRNA) [IR-rpoA-U], for which the dissociation constant (Kd) turned out to be 152 nM in data set [1] (label: 5' IRDye 800CW); 124 nM in data set [2] (label: 5' IRDye 800CW); 24.6 nM in data set [3] (label: 5' IRDye 800CW); 82.7 nM in data set [4] (label: 5' IRDye 800CW); 262 nM in data set [5] (label: 5' IRDye 800CW).

For the molecule AUUACACGUGA (ssRNA) [Cy5-rpoA], the Kd in data set [1] (label: 5' Cy5) was determined as 213 nM; in data set [2] (label: 5' Cy5), 74.1 nM; in data set [3] (label: 5' Cy5) it was 8.35 nM; in data set [4] (label: 5' Cy5), 155 nM; in data set [5] (label: 5' Cy5), 413 nM.

Take AUUAGACGUGA (ssRNA) [Cy5-rpoA-G]: the Kd in data set [1] (label: 5' Cy5) is 346 nM; in data set [2] (label: 5' Cy5), 75.9 nM; in data set [3] (label: 5' Cy5), 291 nM; in data set [4] (label: 5' Cy5), 276 nM; in data set [5] (label: 5' Cy5) it was 17.2 nM.

With AUUAAACGUGA (ssRNA) [IR-rpoA-A], the Kd in data set [1] (label: 5' IRDye 800CW) was 45 nM; in data set [2] (label: 5' IRDye 800CW) it was 139 nM; in data set [3] (label: 5' IRDye 800CW), 215 nM; in data set [4] (label: 5' IRDye 800CW), 41.2 nM; in data set [5] (label: 5' IRDye 800CW) it was 574 nM.
